# Variants at the floor of the assay were thinned out.
# B1: TPR 5TU (parent)
# chain: GGAUCUUCUCGAUCUAACAAAAAAGACAAAUCUGCCACAAAGCUUGAGAGCAUCUUCGGAUGCAGAGGCGGCAGCCUUCGGUGGCGCGAUAGCGCCAACGUUCUCAACUAUGACACGCAAAACGCGUGCUCCGUUGAAUGGAGUUUAUCAUG
# Variants of: B1
# Test: polymerase ribozyme fitness, log enrichment relative to wild type (log ratio); higher = more active; in vitro selection for triplet polymerase activity
# Summary of the method: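 Frozen incubation at −7 °C formed the core of a single, triplicate in vitro selection round applied to PCR-built, transcribed mutant libraries of each subunit of a heterodimeric triplet polymerase ribozyme. Extended constructs were gel-excised, captured with streptavidin beads and amplified by RT-PCR, and input and output libraries were Illumina-sequenced with a filter of ≥10 input reads and ≥1 read per output. Fitness is the logarithm of genotype enrichment relative to wild-type enrichment, with inverse-variance-weighted replicate averaging, and the logarithm is base 2.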
row,Variant,polymerase ribozyme fitness (log ratio)
1,C10U C125U,-3.3
2,G11C U56A C75U U145A,-1.61
3,G11A A29G C38G A147C,≤ -4.2
4,A12C C36U C85U A147U,-1.81
5,A12G U55A G84A G117U,-0.697
6,G11C C93A C125U,≤ -4.2
7,C10G C43G U55A G83A G92C C125A,≤ -4.2
8,C10U A17G A28C G42A C85U A89G C93U U145G,≤ -4.2
9,A12C C85U,-1.44
10,C10U A37U G50A A73U A122G,≤ -4.2
11,C10G A49G G59A A60U G88U A97U,≤ -4.2
12,A12G C95U C105G A106U,-4.1
13,A12G A16U G42C C75U C129U,≤ -4.2
14,A12G G84C,-1.21
15,G11C C76A,-1.78
16,C10U A47C,-3.19
17,C10G A52C,≤ -4.2
18,A12C C96G C99U,-2.39
19,C10U C96G,-3.82
20,C10U C96U,-2.51
21,G11A U45A G46C G80C C87A,≤ -4.2
22,C10U A37U C57G G58U C87G G140U U145A,≤ -4.2
23,A12G U33A A64C G92A G124U,-4
24,A12C C35U A39G G59A C85A C87U,≤ -4.2

row,Variant,polymerase ribozyme fitness (log ratio)
1,C10U U15G G58U A73G G83A A91C C95U U134C,≤ -4.2
2,C10A G48C G59A C103G U104A C105U A113C U146A,≤ -4.2
3,C10G G88U C96U C132G,≤ -4.2
4,G11U C27G C35A C95U C131G G152U,-3.68
5,C10G G84U,-3.9
6,C10G C63G C79U C85G C99A A107G A121U G143A,≤ -4.2
7,A12C G58A A66C G88U A110U,≤ -4.2
8,G11U A21U A37G A52C C85U,-4.18
9,G11U C96U A119C,-1.07
10,C10U A29U U53A C79G C85U C95G A107U,≤ -4.2
11,C10G A26U A107U A115U C129A U148G,≤ -4.2
12,C10U A16U A28G G46A A91G C93A U111G G152U,≤ -4.2
13,A12G A39G,-1.53
14,A12G A39C,-1.68
15,C10G A16G U53A U55A G65A G92A A98U G126A A138U U148G,-4.12
16,C10U A20U G83U,-3.85
17,G11U A19U G81U C95U,-1.81
18,A12G A40G A41C G65A C85U A107G C123G G152A,≤ -4.2
19,C10A C85A,-3.53
20,C10A C32G C38U C54U A142U,-4.12
21,G11A A20C A21U A52G U55C G94C C116U,-4.05
22,A12C A40C C87A C93U G94C A110G A142U,≤ -4.2
23,C10U A21U C54A U55A C95U U102G A106C G141C,≤ -4.2
24,A12C C35G U56G G80A G81C G100C C116U U135C,≤ -4.2

row,Variant,polymerase ribozyme fitness (log ratio)
1,C10U U82A C87G A89U A142U,≤ -4.2
2,C10U A19U C35U C95U C99U,≤ -4.2
3,C10A A66C C85U A98G A121C,≤ -4.2
4,G11C A47U G68C C85A C95A A106G U134C A150G,≤ -4.2
5,A12G C72G G74U G83U U146G,≤ -4.2
6,G11U A24U G50A U56A A60G C87U G126A U146G,≤ -4.2
7,G11U C14G U127G,≤ -4.2
8,A12C C57U C72A C93G U111G U146G,≤ -4.2
9,A12G G58A U148C,-1.8
10,A12G U13C C14A A41C A110U A119G G133A G140U U145G,≤ -4.2
11,G11A C85A A121U C149U,-2.75
12,C10G A12G G84A U109G G141A,≤ -4.2
13,C10U A23G C36A G58U A113U,≤ -4.2
14,C10G C54A G71A,≤ -4.2
15,G11C A19C G70U G86A A89U A106G G136C,≤ -4.2
16,C10U U90G C116G,-3.83
17,A12G C14U C79G C132A A142U,≤ -4.2
18,G11U G58C G84U A97U,-2.86
19,C10G U55A C57A U77G C87G,≤ -4.2
20,G11C G25C A41C U78A C99G,-4.09
21,G11U A29U U55G G92U C93G C95A G133A U144A A150C,≤ -4.2
22,G11A C85U U130G,≤ -4.2
23,C10G G11U C79G G92U A110G C123G U130G A138G U146A,≤ -4.2
24,G11C A20G A47C,-2.54

row,Variant,polymerase ribozyme fitness (log ratio)
1,G11U G94A G133C,-2.79
2,C10G C93A A97U C116U,≤ -4.2
3,C10G U53A A150C,≤ -4.2
4,A12G C57A G58A G81A C85U A91G A119G,-3.03
5,C10U G25C G46C G88U C95U A97U A142C,≤ -4.2
6,G11C A26G C93A A120U G126C,-3.54
7,A12G U44G A60G G65C C114G,≤ -4.2
8,A12G C38U C57G G62A C93A,-2.77
9,C10U G143U,-3.61
10,G11C A122G,-2.55
11,G11U A22G G59U G65C A98U U127C C129G,≤ -4.2
12,A12C A22C U82A G126A,0.264
13,G11C A19C,-1.41
14,A12C C51U C85A A150U,-0.931
15,G11U C18G A21C U31C C57U A91G A113C G143U,≤ -4.2
16,C10G A107C,≤ -4.2
17,G11U A60C C76U,-3.53
18,G11A G59C,-0.989
19,G11C G46U U55A C87U C93U U127G A138C U145A,≤ -4.2
20,A12G A23U U56A C93G,≤ -4.2
21,C10A A39C C54U C76U C87A,≤ -4.2
22,C10G A47C C54A U55A G58A C63U U82C C87G G100U A113C U134G,≤ -4.2
23,C10G G42A C57U C85A C108U,≤ -4.2
24,G11C U33A U44C C76A A89U C95U A122C C123U G133A,≤ -4.2

row,Variant,polymerase ribozyme fitness (log ratio)
1,C10U U33A A49G C76U G81A A98G U102C A137C G140U,≤ -4.2
2,G11U A26U U82A C93A,≤ -4.2
3,G11U A30U C95U C99U,≤ -4.2
4,A12C U53A C87U,-2
5,C10U A20U U44A C79U C87A,≤ -4.2
6,A12G C54U C57A C75U,-0.0208
7,A12C A37C G50A C79G A98G,≤ -4.2
8,C10G A40G A49C U102G G128A,≤ -4.2
9,C10U G84A G126U,-4.02
10,G11U G94C A106G,-1.62
11,G11C A120U,-2.55
12,C10A A40C U56A C108U G143C,≤ -4.2
13,G11U G84A U144G,0.53
14,A12G C54G G80A U144A,-3.53
15,G11U G88C,≤ -4.2
16,A12G U33A A39C G65A G70C C96G A119U C129A U135G,≤ -4.2
17,C10U C93U G117A A137C,≤ -4.2
18,A12G A52C G59A,-1.78
19,C10U A17G A26U G46C U55A C85U A106U G126A G133C,≤ -4.2
20,C10U G42A A49U A64G G71A U139C,≤ -4.2
21,G11U A22G U45G U53G G58C C85U C87A C99G A106U G136A A142U,≤ -4.2
22,C10U C96A C125A,-3.69
23,A12G A22C U101G U127C,-1.93
24,C10U C96G A119U,≤ -4.2

row,Variant,polymerase ribozyme fitness (log ratio)
1,A12G A20G A26U A41C C54U U77C U102C U146G,≤ -4.2
2,G11C A22C G50U U56A C96A G141A,-3.94
3,A12C G59C C87A A107G A115U A150U,≤ -4.2
4,G11U G70U G83C A122G G143C,≤ -4.2
5,C10A U15G C57U G83C,≤ -4.2
6,C10A C76U,-3.95
7,A12C A66C,≤ -4.2
8,C10G A29U C95U C108A,≤ -4.2
9,C10U A12U A121C,-4.08
10,C10G A22C C35U G86U A115G G124A,≤ -4.2
11,A12G C27G U55A A110G G143A U145G U148G,≤ -4.2
12,G11A C96U C116U,-1.68
13,C10G U53A C54A G80C G84A C96G U104C C108U U145G,≤ -4.2
14,G11U U31A A60G C93A,-3.94
15,G11C C32G C54U C57U C79G C87G A110G,≤ -4.2
16,G11C G59A A60C,-3.14
17,C10G U13G C57U C85U G152C,≤ -4.2
18,C10A A22C A73U C79G C87A A113G,≤ -4.2
19,A12G C75G A119C,-3.34
20,A12C A97G U102G,-3.89
21,C10A C51G A52C G59A C75G,≤ -4.2
22,G11A U44A G48A C57U C96U,≤ -4.2
23,C10U A29U A47U G84U C103A C116G U145G G152U,≤ -4.2
24,C10G A37G C51G A107G U145C U148G,≤ -4.2

row,Variant,polymerase ribozyme fitness (log ratio)
1,G11A U61A G67C C87G G141U,≤ -4.2
2,C10A A20U A21C A49C C51U C79U A110G,≤ -4.2
3,G11A G50A C63U C93U,-1.77
4,A12C A41U C75U A122C C125U,-3.38
5,G11U G50C A73G,≤ -4.2
6,A12C C57A,-0.21
7,C10G A21G G59A,≤ -4.2
8,A12G A28C C116A A147C,≤ -4.2
9,G11U C38G G46A,-2.87
10,C10G C87A C93U,≤ -4.2
11,C10U A19U C32G G80A G88U A115G U146A,≤ -4.2
12,G11A A17C A20C A22U G46U C85U,-3.03
13,C10U G46C G124A,≤ -4.2
14,C10G A98G,-4
15,C10G A64C G70A A97U U144G A150U,≤ -4.2
16,G11C A30G U53A G58A C95A,≤ -4.2
17,C10G C14G G25C G59U C95U A110G,≤ -4.2
18,A12C C87U,-0.61
19,G11A A137C C149U,≤ -4.2
20,G11A A30G A41C A91U C95G G140C,≤ -4.2
21,C10G A22G C63U G81U G94C A147G U148A,≤ -4.2
22,G11C A26U C69U,≤ -4.2
23,C10G G92A U111G A150C,≤ -4.2

# — the RNAGym collection of RNA variant scans (doi:10.1073/pnas.2313332121)
